The target of one test is HLA-B*58:01. The test is described as follows: IEDB peptide-MHC binding, purified MHC/direct/fluorescence; filed as Kd, often an IC50 or EC50 that approximates it; ≥ and ≤ were set here for values at or beyond the usual limits of such assays.
The next test deals with HLA-B*57:01. Described as above.
The target in another test is HLA-B*15:17. The test is described as above.
The target in a further test is HLA-B*15:03. The test can be described thus: IEDB peptide-MHC binding, purified MHC/competitive/radioactivity; filed as Kd, often an IC50 or EC50 that approximates it; ≥ and ≤ were set here for values at or beyond the usual limits of such assays.
In a further test the target is HLA-A*02:01. The test is described as follows: IEDB peptide-MHC binding, purified MHC/competitive/fluorescence; filed as Kd, often an IC50 or EC50 that approximates it; ≥ and ≤ were set here for values at or beyond the usual limits of such assays. Conditions: source organism: Vaccinia virus Copenhagen.
For another test, the target named is HLA-A*11:01. The test can be described thus: IEDB peptide-MHC binding, purified MHC/competitive/radioactivity; filed as Kd, often an IC50 or EC50 that approximates it; ≥ and ≤ were set here for values at or beyond the usual limits of such assays.
For the next test, the target named is HLA-B*51:01. Described as above.
A further test addresses HLA-B*07:02. The description is as above.
A further test concerns the target HLA-A*68:01. Described as above.
For the next test, the target named is HLA-A*33:01. Described as above.
Another test deals with HLA-B*54:01. The test is described as above.
A further test deals with HLA-B*35:01. The test is described as above.
The next test concerns the target HLA-A*03:01. The description is as above.
Another test deals with HLA-B*53:01. Described as above.
Another test has as its target HLA-A*31:01. The test is described as above.
The target of another test is HLA-B*15:01. Described as above.
The next test deals with HLA-B*08:01. Described as above. Conditions: source organism: Vaccinia virus WR.
Another test deals with HLA-A*30:01. The description is as above. The following applies: source organism: Vaccinia virus WR.
Another test has as its target HLA-A*32:01. The description is as above.
For the next test, the target named is HLA-A*23:01. The description is as above. The following applies: source organism: Mammarenavirus juninense.
The target of a further test is HLA-A*29:02. The description is as above. The following applies: source organism: Mammarenavirus juninense.
In another test the target is HLA-A*24:02. The test is described as above. Conditions: source organism: Mammarenavirus juninense.
A further test concerns the target HLA-A*24:03. The test can be described thus: IEDB peptide-MHC binding, purified MHC/direct/fluorescence; filed as Kd, often an IC50 or EC50 that approximates it; ≥ and ≤ were set here for values at or beyond the usual limits of such assays. The following applies: source organism: Mammarenavirus machupoense.
Where [1] appears, read: source organism: Brucella melitensis.
[2] abbreviates: source organism: Vaccinia virus WR.
[3] abbreviates: source organism: Vaccinia virus Copenhagen.
Where [4] appears, read: source organism: Mammarenavirus lassaense.
[5] abbreviates: source organism: Marburg virus - Musoke, Kenya, 1980.
[6] abbreviates: source organism: Lake Victoria marburgvirus - Popp.
Where [7] appears, read: source organism: SARS coronavirus Tor2.
[8] abbreviates: source organism: Mammarenavirus guanaritoense.

From the Immune Epitope Database (IEDB) come the findings set out here.

In the case of KAGVRGWFL, the dissociation constant Kd (usually the constant that tells how readily two partners part at equilibrium) with HLA-B*58:01 (setting [1]) amounted to 225 nM; with HLA-B*57:01 (setting [1]), 71.5 nM; with HLA-B*15:17 (setting [1]) it was 2280 nM.

FQRKPFNNI: the dissociation constant (Kd) with HLA-B*15:03 (setting [2]) stood at 8.9 nM.

Turning to FLIVSLCPT, the dissociation constant (Kd) with HLA-A*02:01 was 0.3 nM; with HLA-A*11:01 (setting [3]) it was no less than 48100 nM; with HLA-B*51:01 (setting [3]), no less than 28600 nM; with HLA-B*07:02 (setting [3]), 12000 nM; with HLA-A*68:01 (setting [3]), 5310 nM; with HLA-A*33:01 (setting [3]), 6550 nM. In addition, the equilibrium dissociation constant (Kd) in the test with HLA-B*54:01 (setting [3]) was 359 nM; with HLA-B*35:01 (setting [3]), 16000 nM; in the test with HLA-A*03:01 (setting [3]), 2590 nM; with HLA-B*53:01 (setting [3]), 6210 nM; with HLA-A*31:01 (setting [3]), 3230 nM.

For the sequence FQTVNFNNA, the dissociation constant Kd with HLA-B*15:03 (setting [2]) is 305 nM; in the test with HLA-B*15:01 (setting [2]) it was 8180 nM; with HLA-B*08:01, 16000 nM; in the test with HLA-A*30:01, 115 nM; with HLA-A*32:01 (setting [2]), no less than 50900 nM.

As for LPSLIKTILA, the Kd with HLA-B*51:01 (setting [2]) was 11000 nM; in the test with HLA-B*07:02 (setting [2]) it was 1520 nM; with HLA-B*54:01 (setting [2]) it was 1.54 nM; with HLA-B*35:01 (setting [2]), 2230 nM; in the test with HLA-B*53:01 (setting [2]), 1960 nM.

As for FYSSFVQTF, the Kd with HLA-B*15:03 (setting [2]) is 38.8 nM.

Turning to KTKETNRIY, the dissociation constant Kd turned out to be 172 nM with HLA-B*15:03 (setting [2]) and 10.7 nM in the test with HLA-A*30:01.

As for CPFLFLIVL, the Kd was no less than 54700 nM in the test with HLA-B*51:01 (setting [4]); no less than 77400 nM with HLA-B*07:02 (setting [4]); 1520 nM with HLA-B*54:01 (setting [4]); 414 nM with HLA-B*35:01 (setting [4]); 14100 nM with HLA-B*53:01 (setting [4]).

Regarding RAYSVPETF, the figures for the Kd in the test with HLA-B*58:01 (setting [1]), in the test with HLA-B*57:01 (setting [1]) and with HLA-B*15:17 (setting [1]) were 14.5 nM, 41.8 nM and no more than 1 nM, respectively.

Take DPTFQLLNMI: the Kd with HLA-B*51:01 (setting [2]) was 4990 nM; with HLA-B*07:02 (setting [2]) it was no less than 69600 nM; in the test with HLA-B*54:01 (setting [2]), no less than 27100 nM; with HLA-B*35:01 (setting [2]), no less than 69900 nM; with HLA-B*53:01 (setting [2]), 12600 nM.

ILMIFISSFL: the dissociation constant (Kd) amounted to 1780 nM with HLA-A*11:01 (setting [2]); 4910 nM with HLA-B*51:01 (setting [2]); 16800 nM with HLA-B*07:02 (setting [2]); 989 nM with HLA-A*68:01 (setting [2]); 966 nM in the test with HLA-A*33:01 (setting [2]); 1500 nM with HLA-B*54:01 (setting [2]). For the same sequence, the Kd in the test with HLA-B*35:01 (setting [2]) came to 3050 nM; with HLA-A*03:01 (setting [2]), 397 nM; in the test with HLA-B*53:01 (setting [2]) it was 1250 nM; with HLA-A*31:01 (setting [2]), 625 nM.

For ILMIFISSF, the values for the Kd with HLA-B*15:03 (setting [2]) and in the test with HLA-A*32:01 (setting [2]) were 11.9 nM and 86.7 nM, respectively.

With SSNAKNSEW, the Kd came to 69.9 nM with HLA-B*58:01 (setting [5]), 135 nM with HLA-B*57:01 (setting [5]) and 2.7 nM in the test with HLA-B*15:17 (setting [5]).

As to VPDIKLDAVL, the Kd with HLA-B*51:01 (setting [2]) came out at 335 nM; with HLA-B*07:02 (setting [2]), 4.94 nM; in the test with HLA-B*54:01 (setting [2]), 1620 nM; with HLA-B*35:01 (setting [2]), 140 nM; with HLA-B*53:01 (setting [2]), 134 nM.

For KWKYENPCK, the Kd with HLA-B*15:03 (setting [2]) was 296 nM; with HLA-B*15:01 (setting [2]) it was no less than 78100 nM; with HLA-B*08:01 it was no less than 50900 nM; with HLA-A*30:01 it was 15 nM; with HLA-A*32:01 (setting [2]), no less than 59000 nM.

For the sequence TPVEIVVDM, the Kd is 9820 nM with HLA-B*51:01 (setting [4]); 16700 nM in the test with HLA-B*07:02 (setting [4]); no less than 78100 nM with HLA-B*54:01 (setting [4]); 4.6 nM in the test with HLA-B*35:01 (setting [4]); 158 nM with HLA-B*53:01 (setting [4]).

Take MTVVSAVHF: the Kd with HLA-B*15:03 (setting [2]) was 278 nM; with HLA-A*32:01 (setting [2]), 1940 nM.

In the case of KPEVRIPVDL, the dissociation constant Kd in the test with HLA-B*51:01 (setting [2]) was no less than 69600 nM; with HLA-B*07:02 (setting [2]), 235 nM; with HLA-B*54:01 (setting [2]), 14300 nM; in the test with HLA-B*35:01 (setting [2]), no less than 69900 nM; with HLA-B*53:01 (setting [2]), no less than 42400 nM.

With FAAMIIRSF, the Kd with HLA-B*15:03 (setting [2]) came out at 1.33 nM.

Consider FPAIFSAEVL, for which the dissociation constant (Kd) was 9910 nM with HLA-B*51:01 (setting [4]); 1380 nM in the test with HLA-B*07:02 (setting [4]); 523 nM with HLA-B*54:01 (setting [4]); 55.7 nM with HLA-B*35:01 (setting [4]); 332 nM in the test with HLA-B*53:01 (setting [4]).

For the sequence KSPDVHEDF, the Kd in the test with HLA-B*58:01 (setting [6]) was 921 nM; with HLA-B*57:01 (setting [6]), 566 nM; with HLA-B*15:17 (setting [6]) it was no less than 20000 nM.

Consider APNAKEEIL, for which the Kd is 2650 nM in the test with HLA-B*51:01 (setting [7]); 71.2 nM with HLA-B*07:02 (setting [7]); no less than 23300 nM with HLA-B*54:01 (setting [7]); 19200 nM with HLA-B*35:01 (setting [7]); 18500 nM with HLA-B*53:01 (setting [7]).

For the sequence LQNSVVLQF, the dissociation constant Kd with HLA-B*15:03 (setting [3]) worked out at 6.22 nM; with HLA-B*15:01 (setting [3]), 1.51 nM; in the test with HLA-A*32:01 (setting [3]) it was 7.33 nM.

SATYATVPF: the Kd with HLA-B*15:03 (setting [3]) stood at 12 nM.

DPRLVAEHRF: the dissociation constant Kd is no less than 69600 nM in the test with HLA-B*51:01 (setting [2]); no less than 21400 nM in the test with HLA-B*07:02 (setting [2]); no less than 69900 nM with HLA-B*54:01 (setting [2]); 11700 nM with HLA-B*35:01 (setting [2]); 1210 nM in the test with HLA-B*53:01 (setting [2]).

Consider SPLFLIVAAL, for which the Kd with HLA-B*51:01 (setting [7]) stood at 970 nM; in the test with HLA-B*07:02 (setting [7]) it was 248 nM; with HLA-B*54:01 (setting [7]), 949 nM; in the test with HLA-B*35:01 (setting [7]), 3330 nM; with HLA-B*53:01 (setting [7]) it was 1040 nM.

Consider LPVYFGSVF, for which the Kd with HLA-B*15:03 (setting [2]) was 123 nM.

As for NLYSFTIVF, in the test with HLA-B*15:03 (setting [3]), the Kd came out at 31.2 nM.

As for KSSLNISGY, the equilibrium dissociation constant (Kd) with HLA-B*58:01 (setting [4]) turned out to be 37.7 nM; with HLA-B*57:01 (setting [4]) it was 574 nM; with HLA-B*15:17 (setting [4]), 1.6 nM.

In the case of VLFLQQSIF, the equilibrium dissociation constant (Kd) with HLA-B*15:03 (setting [2]) stood at 0.61 nM.

As to IQHNFTQIA, in the test with HLA-B*15:03 (setting [2]), the equilibrium dissociation constant (Kd) was 0.251 nM.

On to DPDHYKDYAF, for which the equilibrium dissociation constant (Kd) is no less than 69600 nM with HLA-B*51:01 (setting [2]); no less than 69600 nM with HLA-B*07:02 (setting [2]); 17300 nM in the test with HLA-B*54:01 (setting [2]); 894 nM in the test with HLA-B*35:01 (setting [2]); 3440 nM with HLA-B*53:01 (setting [2]).

For NPLVITTSV, the equilibrium dissociation constant (Kd) was 381 nM with HLA-B*51:01 (setting [8]); 1330 nM with HLA-B*07:02 (setting [8]); 79.8 nM with HLA-B*54:01 (setting [8]); 5530 nM with HLA-B*35:01 (setting [8]); 14200 nM with HLA-B*53:01 (setting [8]).

Turning to FPYVMGDVEL, the Kd with HLA-B*51:01 (setting [4]) is 304 nM; with HLA-B*07:02 (setting [4]) it was 930 nM; in the test with HLA-B*54:01 (setting [4]) it was 487 nM; with HLA-B*35:01 (setting [4]), 11.1 nM; in the test with HLA-B*53:01 (setting [4]) it was 46.9 nM.

Take LYTVKYPNL: the dissociation constant Kd in the test with HLA-A*23:01 was 230 nM; with HLA-A*29:02, no less than 23500 nM; in the test with HLA-A*24:02, 2430 nM; in the test with HLA-A*24:03 it was 30.1 nM.

Regarding LSVPAAIMM, in the test with HLA-B*15:03 (setting [2]), the dissociation constant Kd is 68.5 nM.
